Results: patent US20190022222A1, “NEUTRON CAPTURE THERAPY SYSTEM FOR ELIMINATING AMYLOID Beta-PROTEIN DEPOSITION PLAQUE” (NEUBORON MEDTECH LTD., priority 2016, published 2019)

Legend:
amyloid β-protein = amyloid β-protein (Homo sapiens, UniProt P05067); experiment: equilibrium dissociation constant KD with amyloid β-protein solution; format: binding; details: amyloid β-protein solution 10 μM, compound 0.1 to 10 μM, room temperature 20 min
Procedure: In the examples of the present disclosure, the affinity of the ^10B-containing compound and the amyloid β-protein deposition plaque is evaluated by using the equilibrium dissociation constant KD value. KD can indicate the degree of dissociation of the two substances in the equilibrium state.
The amyloid β-protein solution was prepared at a concentration of 10 μM and mixed with compound I or compound II at different concentrations (concentrations ranging from 0.1 to 10 μM). […] In addition, a known compound capable of specifically binding to amyloid β-protein was used as a control and mixed with a amyloid β-protein solution at a concentration of 10 μM and allowed to stand at room temperature for 20 min. The equilibrium dissociation constant KD was also measured and calculated.

Aβ = details: phase III clinical trial, latest results; cited from earlier work
Aβ, sequence (P05067 672-711 limits assumed): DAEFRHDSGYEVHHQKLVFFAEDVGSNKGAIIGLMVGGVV

amyloid β-protein, sequence (P05067 672-713 limits assumed): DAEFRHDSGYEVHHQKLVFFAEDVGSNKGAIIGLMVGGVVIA

| Molecule | Kd (amyloid β-protein) [nM] | Aβ level in cerebrospinal fluid (Aβ) | tau protein level in cerebrospinal fluid (Aβ) |
| --- | --- | --- | --- |
| Cc1ccc(C(=O)/C=C/c2ccc(N)cc2)o1 [control] | 1590 |  |  |
| Gantenerumab: monoclonal antibody that binds to the N-terminal epitope of Aβ (antibody, chains of the INN, looked up, V domains shown) VH: QVELVESGGGLVQPGGSLRLSCAASGFTFSSYAMSWVRQAPGKGLEWVSAINASGTRTYYADSVKGRFTISRDNSKNTLYLQMNSLRAEDTAVYYCARGKGNTHKPYGYVRYFDVWGQGTLVTVSS VL: DIVLTQSPATLSLSPGERATLSCRASQSVSSSYLAWYQQKPGQAPRLLIYGASSRATGVPARFSGSGSGTDFTLTISSLEPEDFATYYCLQIYNMPITFGQGTKVEIK |  | does not significantly reduce | significantly reduces |
